Laboratory results: paper PMC10072977 (Biochemical and Biophysical Research Communications, 2023)

Biological target: SARS-CoV-2 WT RBD protein (SARS-CoV-2 wild type, UniProt P0DTC2)
Assay: ELISA

B1: rabbit monoclonal antibody (RmAb) 9H1 (antibody, V domains shown)
VH: QSVEESGGRLVTPGTPLTLTCTVSGFSLSRYAMSWVRQAPGKGLEWIGIIVDSGHTAYASWAKGRFTISRTSTTVDLKMTSLTTEDTATYFCARETGGGAFYVFEFWGPGTVVTVSS
VL: QVLTQTPSSVSAAVGGTVTINCQASEDIYDNLVWYQQKPGQPPKLLIYDASTLAFGVSSRFRGSGSGTHFTLTMRDVQCDDAATYYCQGEFSCSSGDCTAFGGGTEVVVK
B1: binds.
